{"source": "patent US7807387B2", "about": "“Biological agent that causes IL-6 receptor release” (Meyer Pharmaceuticals LLC, priority 2003, dated 2010)", "key": {"[1]": {"tested_on": "carrageenan-induced paw edema", "test": "Carrageenan-induced paw edema", "format": "in vivo, Sprague Dawley rats", "experimental": "Based on the standard model (Winter et al., Proc Soc Exp Biol Med 111:544, 1962; Hansra et al., Inflammation 24:141, 2000), the experiment was performed as follows. Male Sprague Dawley rats were randomized by weight into three treatment groups. The animals were administered MP8 or control solution subcutaneously, or indomethacin by mouth. One hour later, they were injected in the left hind paw with a sterile solution of 1% carrageenan suspension in water, in order to induce swelling. Three hours later, the volume of the injected paw was measured by water displacement in a water plethysmograph (mean±SEM; 10 animals per group).\nMale Sprague Dawley rats were administered with test protein or indomethacin (anti-inflammatory control), and then challenged in a hind footpad with carrageenan, as in Example 12."}, "[2]": {"tested_on": "p55 or p75 TNF receptor", "conditions": "cited from earlier work"}, "[3]": {"target": "p55 TNF Receptor (Homo sapiens, UniProt P19438)", "test": "FRET peptide cleavage assay, p55 TNF receptor peptide", "format": "biochemical", "conditions": "Zn++ 0.1 mM, Ca++ 2 mM, corrected for EDTA, 37° C. for 3 hours", "experimental": "Cytokine-specific proteolytic activity can rapidly be quantified by Fluorescence Resonance Energy Transfer (FRET). Peptides having the amino acid sequence of the TNF Receptor or other protein substrates are labeled at opposite ends with a fluorescence emitter and a fluorescence quencher. The peptide is then incubated with a source of receptor cleaving enzyme, and fluorescence is measured. The quenching group normally absorbs fluorescence from the emitter. But enzymatic cleavage of the peptide decouples the quenching group, and fluorescence emission increases proportionally.\nThe peptides used as substrates in the cleavage assay were taken from the known sites of proteolytic cleavage of the whole protein. The peptides were labeled with the fluorescence emitter (Edans-●) at the C-terminal, and the quenching hapten (Dabcyl-▴) at the N-terminal.\nThe assay is conducted in the presence of the metal cations Zn^++ (0.1 mM) and Ca^++ (2 mM), and corrected for cleavage in the presence of EDTA (20 mM). Dependence on divalent cations confirms that the enzyme activity measured in this assay is a metalloprotease. The assay mixture also contains a cocktail of protease inhibitors and bovine albumin. Cleavage is measured as the net change in fluorescence emission after incubating the enzyme with the peptide at 37° C. for 3 hours. […]"}, "[4]": {"tested_on": "TNF receptor", "test": "Cell surface cleavage assay, release of TNF receptor isoforms by enzyme immunoassay", "format": "cell-based", "conditions": "25 μg protein with 2.5×10^6 cells; (treated—untreated)/untreated", "experimental": "To determine cell surface cleavage activity, 25 μg of MP8-FL2 was combined with 2.5×10^6 cells. Release of both TNF receptor isoforms was determined by enzyme immunoassay as (treated—untreated)/untreated."}, "[5]": {"tested_on": "LPS-induced septic shock", "test": "LPS/galactosamine-induced septic shock model", "format": "in vivo, Balb/c mice", "conditions": "up to 40 μg one hour before 10 μg LPS and 15 mg galactosamine", "experimental": "A classic model for determining effectiveness of agents against cytokine-mediated inflammation is endotoxin-induced septic shock (Morrison et al., J Infect Dis 162:1063, 1990).\nThe septic shock experiment was conducted as follows. Female Balb/c mice were randomized by weight into 6 treatment groups. Sepsis was induced by injecting 10 μg LPS and 7 mg galactosamine in the lateral or dorsal caudal vein. Some of the groups were pretreated with 50,000 FU of MP8 simultaneously or 3 hours in advance of the LPS challenge to determine whether there was a protective effect.\nFIG. 8 is a Kaplan-Meier survival curve, showing the mortality in each of the treatment groups in the study. Without any treatment or challenge, there is no effect on the animals, and the line stays at the top. Life-compromising challenge causes the line to fall to the bottom of the graph in a step-wise fashion as each animal succumbs. Treatment that is protective against the challenge maintains the line near the top of the graph.\nThe enzyme was administered in a volume of 110 μL at one hour before the LPS challenge.\nStability of the clinical effect of MP8 was determined in the septic shock model. Female Balb/c mice were injected with 300,000 FU of MP8 that had been stored for 4 days at −70° C., or 7 days at 4° C. One hour later, the mice were challenged with 10 μg LPS and 7 mg galactosamine as before.\nIn this example, durability of receptor cleavage in vivo was determined by treating animals subcutaneously up to three days in advance with 300,000 FU of MP8. The mice were then challenged with […] LPS and 7 mg galactosamine in the usual fashion.\nSepsis was induced in Balb/c mice by administering 10 μg LPS and […] galactosamine, as in Example 3. Randomized groups were pretreated with up to 40 μg MP8-FL2 one hours in advance of the LPS challenge."}, "[6]": {"test": "Isoelectric point", "format": "physicochemical"}}, "data": [{"molecule": "COc1ccc2c(c1)c(CC(=O)O)c(C)n2C(=O)c1ccc(Cl)cc1", "note": "[indomethacin, reference compound]", "values": [{"measurement": "inhibition of edema formation", "setting": "[1]; given one hour before carrageenan, paw volume three hours later, MP8 subcutaneously, indomethacin by mouth", "result": 49, "unit": "%"}]}, {"molecule": "ADAM-10: metalloprotease (protein, UniProt O14672 214-748, looked up) Disintegrin and …: TTSAEKNTCQLYIQTDHLFFKYYGTREAVIAQISSHVKAIDTIYQTTDFSGIRNISFMVKRIRINTTADEKDPTNPFRFPNIGVEKFLELNSEQNHDDYCLAYVFTDRDFDDGVLGLAWVGAPSGSSGGICEKSKLYSDGKKKSLNTGIITVQNYGSHVPPKVSHITFAHEVGHNFGSPHDSGTECTPGESKNLGQKENGNYIMYARATSGDKLNNNKFSLCSIRNISQVLEKKRNNCFVESGQPICGNGMVEQGEECDCGYSDQCKDECCFDANQPEGRKCKLKPGKQCSPSQGPCCTAQCAFKSKSEKCRDDSDCAREGICNGFTALCPASDPKPNFTDCNRHTQVCINGQCAGSICEKYGLEECTCASSDGKDDKELCHVCCMKKMDPSTCASTGSVQWSRHFSGRTITLQPGSPCNDFRGYCDVFMRCRLVDADGPLARLKKAIFSPELYENIAEWIVAHWWAVLLMGIALIMLMAGFIKICSVHTPSSNPKLPPPKPLPGTLKRRRPPQPIQQPQRQRPRESYQMGHMRR", "values": [{"measurement": "cleavage of p55 or p75 TNF receptor", "setting": "[2]", "result": "do not efficiently cleave"}]}, {"molecule": "MDC-9: metalloprotease (protein, UniProt Q13443 29-819, looked up) Disintegrin and …: AARPGFQQTSHLSSYEIITPWRLTRERREAPRPYSKQVSYVIQAEGKEHIIHLERNKDLLPEDFVVYTYNKEGTLITDHPNIQNHCHYRGYVEGVHNSSIALSDCFGLRGLLHLENASYGIEPLQNSSHFEHIIYRMDDVYKEPLKCGVSNKDIEKETAKDEEEEPPSMTQLLRRRRAVLPQTRYVELFIVVDKERYDMMGRNQTAVREEMILLANYLDSMYIMLNIRIVLVGLEIWTNGNLINIVGGAGDVLGNFVQWREKFLITRRRHDSAQLVLKKGFGGTAGMAFVGTVCSRSHAGGINVFGQITVETFASIVAHELGHNLGMNHDDGRDCSCGAKSCIMNSGASGSRNFSSCSAEDFEKLTLNKGGNCLLNIPKPDEAYSAPSCGNKLVDAGEECDCGTPKECELDPCCEGSTCKLKSFAECAYGDCCKDCRFLPGGTLCRGKTSECDVPEYCNGSSQFCQPDVFIQNGYPCQNNKAYCYNGMCQYYDAQCQVIFGSKAKAAPKDCFIEVNSKGDRFGNCGFSGNEYKKCATGNALCGKLQCENVQEIPVFGIVPAIIQTPSRGTKCWGVDFQLGSDVPDPGMVNEGTKCGAGKICRNFQCVDASVLNYDCDVQKKCHGHGVCNSNKNCHCENGWAPPNCETKGYGGSVDSGPTYNEMNTALRDGLLVFFFLIVPLIVCAIFIFIKRDQLWRSYFRKKRSQTYESDGKNQANPSRQPGSVPRHVSPVTPPREVPIYANRFAVPTYAAKQPQQFPSRPPPPQPKVSSQGNLIPARPAPAPPLYSSLT", "values": [{"measurement": "cleavage of p55 or p75 TNF receptor", "setting": "[2]", "result": "do not efficiently cleave"}]}, {"molecule": "MP8-FL2: full length MP8 (SEQ. ID NO:53) without HIS tag, produced from E. coli strain MP820 (protein, listed as Homo sapiens) MCVHPGACLPHVGVSWAEFPGHFSVELSSLLVRNVNYEIPSLKKQIAKCQQLQQEYSRKEEECQAGAAEMREQFYHSCKQYGITGENVRGELLALVKDLPSQLAEIGAAAQQSLGEAIDVYQASVGFVCESPTEQVLPMLRFVQKRGNSTVYEWRTGTEPSVVERPHLEELPEQVAEDAIDWGDFGVEAVSEGTDSGISAEAAGIDWGIFPESDSKDPGGDGIDWGDDAVALQITVLEAGTQAPEGVARGPDALTLLEYTETRNQFLDELMELEIFLAQRAVELSEEADVLSVSQFQLAPAILQGQTKEKMVTMVSVLEDLIGKLTSLQLQHLFMILASPRYVDRVTEFLQQKLKQSQLLALKKELMVQKQQEALEEQAALEPKLDLLLEKTKELQKLIEADISKRYSGRPVNLMGTSL", "values": [{"measurement": "cleavage of p55 TNF receptor (R1) peptide", "setting": "[3]", "result": "caused cleavage"}, {"measurement": "cleavage and release of TNF receptor from the cell surface", "setting": "[4]", "result": "cause cleavage and release of TNF receptor, with preference for the R1 (p55) isoform"}, {"measurement": "protection against septic shock", "setting": "[5]", "result": "protected the mice in a dose-dependent fashion"}, {"measurement": "paw swelling", "setting": "[1]; challenge in hind footpad with carrageenan as in Example 12", "result": "significantly prevented paw swelling"}, {"measurement": "Isoelectric Point - By isoelectric focusing", "setting": "[6]", "result": 5.6}]}]}
